The values below come from paper PMC9762252.

The test system of this data set is O=C(O)C(=O)/C=C/c1ccccc1O. Put plainly: purified protein. Particulars: 50 mM Na2HPO4 pH 7.2, 22 °C.
Take “NahE (His-tag NahE) (Pseudomonas putida; W128F)”: the Km turned out to be 8 ± 2 µM, the kcat is 8 s⁻¹ and the kcat/Km came to 1e+06 M⁻¹ s⁻¹.
Regarding “NahE (His-tag NahE) (Pseudomonas putida; T65S)”, the Km stood at 1.7 ± 0.3 µM, the kcat stood at 0.0085 s⁻¹ and the kcat/Km was found to be 5000 M⁻¹ s⁻¹.
In the same order, the values of “NahE (His-tag NahE) (Pseudomonas putida; T65V)” are 21 ± 8 µM, 0.004 s⁻¹ and 190 M⁻¹ s⁻¹.
As for “NahE (His-tag NahE) (Pseudomonas putida; N157A)”, the Michaelis constant (Km) worked out at 8 ± 1 µM, the kcat amounted to 0.13 s⁻¹ and the kcat/Km came to 16000 M⁻¹ s⁻¹.
In the same order, the values of “NahE (His-tag NahE) (Pseudomonas putida; N157L)” are 60 ± 10 µM, 0.6 s⁻¹ and 10000 M⁻¹ s⁻¹.
In the same order, the values of “NahE (His-tag NahE) (Pseudomonas putida; Y155F)” are 4 ± 1 µM, 0.004 s⁻¹ and 1000 M⁻¹ s⁻¹.
In the same order, the values of “NahE (His-tag NahE) (Pseudomonas putida; W128Y)” are 7 ± 1 µM, 5 s⁻¹ and 700000 M⁻¹ s⁻¹.
